How the values were obtained:
[1] = Arginase specific activity; format: biochemical; conditions: purified arginase sample, or after pegylation with mPEG-SPA MW 5,000 (mole ratio 1:50)
Description: The purified Arginase as prepared using the methods described above was used for pegylation. Using the previous examples to illustrate the method, an arginase sample with specific activity=518 I.U./mg was dissolved in PBS buffer before carrying out pegylation.
The mPEG-SPA (cat. no. 2M4MOH01, Nektar, USA), MW 5,000 (5.82 g) was added into 555 ml of the purified Arginase (813.64 mg, 1.466 mg/ml) solution slowly in a 1 L beaker and then stirred for 2 h 40 min at room temperature (mole ratio of Arginase:mPEG-SPA=1:50). The mixture was then dialyzed extensively by ultra-dialysis against 15 L of PBS buffer using the F50(S) capillary dialyzer (Fresenius Medical Care, Bad Homburg, Germany) to remove all the unincorporated PEG. The mPEG-SPA uses amino groups of lysines and the N-terminus of the protein as the site of modification. In this example, the measured specific activity of the pegylated Arginase was as high as 592 I.U./mg.

[2] = ½-life determination of pegylated Arginase in vitro in human blood plasma; format: in vitro ADME; conditions: 37° C., 0.24 mg/ml pegylated Arginase
Description: As used herein, the term “half-life” (½-life) refers to the time that would be required for the concentration of the Arginase in human plasma in vitro, to fall by half.
Purified Arginase (1 mg) was dissolved in 1 ml of 125 mM borate buffer solution (pH 8.3) on ice. Activated PEG (mPEG-SPA, MW 5,000) (7.14 mg) was added into the protein solution slowly at a mole ratio of Arginase:PEG=1:50. The mixture was stirred on ice for 2.5 h.
Pegylated Arginase (305.6 μl) at a concentration of 1 mg/ml was added into human plasma (1 ml) and the final concentration of pegylated Arginase was 0.24 mg/ml. The mixture was divided into 20 aliquots in eppendorf tubes (65 μl mixture in each eppendorf tube) and then incubated at 37° C. A 1-2 μl portion of the mixture from each eppendorf tube was used to test the Arginase activity. In this example, the ½-life was determined to be approximately 3 days. It took about 3 days to reduce the relative activity from 100% to 50%.

B1: arginase: Recombinant human Arginase I with N-terminal 6xHis tag (SEQ ID NO: 3), produced in B. subtilis LLC101 (protein, listed as Homo sapiens)
chain: MHHHHHHMSAKSRTIGIIGAPFSKGQPRGGVEEGPTVLRKAGLLEKLKEQECDVKDYGDLPFADIPNDSPFQIVKNPRSVGKASEQLAGKVAQVKKNGRISLVLGGDHSLAIGSISGHARVHPDLGVIWVDAHTDINTPLTTTSGNLHGQPVSFLLKELKGKIPDVPGFSWVTPCISAKDIVYIGLRDVDPGEHYILKTLGIKYFSMTEVDRLGIGKVMEETLSYLLGRKKRPIHLSFDVDGLDPSFTPATGTPVVGGLTYREGLYITEEIYKTGLLSGLDIMEVNPSLGKTPEEVTRTVNTAVAITLACFGLAREGNHKPIDYLNPPK
modifications: N-terminal 6xHis tag
B1 gave a specific activity [1] of 518 I.U./mg.

B2: pegylated Arginase: Arginase I modified by pegylation with mPEG-SPA MW 5,000 to increase stability and minimize immunoreactivity (protein, UniProt P05089 1-322, looked up)
Arginase-1: MSAKSRTIGIIGAPFSKGQPRGGVEEGPTVLRKAGLLEKLKEQECDVKDYGDLPFADIPNDSPFQIVKNPRSVGKASEQLAGKVAEVKKNGRISLVLGGDHSLAIGSISGHARVHPDLGVIWVDAHTDINTPLTTTSGNLHGQPVSFLLKELKGKIPDVPGFSWVTPCISAKDIVYIGLRDVDPGEHYILKTLGIKYFSMTEVDRLGIGKVMEETLSYLLGRKKRPIHLSFDVDGLDPSFTPATGTPVVGGLTYREGLYITEEIYKTGLLSGLDIMEVNPSLGKTPEEVTRTVNTAVAITLACFGLAREGNHKPIDYLNPPK
modifications: mPEG-SPA 5 kDa
For B2, the specific activity [1] was 592 I.U./mg and the “½-life (time for relative Arginase activity to fall from 100% to 50%)” value [2] was “approximately 3 days”.

Source: patent publication US20080292609A1, “Use of Arginase in Combination with 5FU and Other Compounds for Treatment of Human Malignancies” (priority 2007, published 2008)
